Target: microtubules (MTs) polymerised from porcine brain tubulin, taxol-stabilised (porcine) (UniProt P02550)
Assay: co-sedimentation; GST-rMap7D2 proteins incubated with 0.4 mg/ml taxol-stabilised MTs in polymerization buffer (80 mM PIPES/NaOH pH 6.8, 1 mM MgCl2, 1 mM EGTA, 1 mM GTP) with 15 μM taxol, 20 min at 37°C; centrifuged at 100,000g for 30 min at 37°C through a 50% sucrose cushion; supernatant and pellet by SDS-PAGE, CBB staining, densitometer; Scatchard analysis

GST-rMap7D2 (full length) (from UniProt D4A4L4 1-763) (natural protein)
Kd: 600 nM | stoichiometry N (scale: tubulin α/β heterodimers per GST-rMap7D2 molecule): 10
